Measured values reported in publication PMC5364489, “Isolation and characterization of the E. coli membrane protein production strain Mutant56(DE3)”.

Molecular target: wild-type T7 RNA polymerase (Enterobacteria phage T7 (gene from E. …, UniProt P00573 1-883))
Test: EMSA; 2.5 uM dsDNA; half-saturation compared only in figure, not a true Kd; 50 mM Tris acetate, 10 mM magnesium acetate, 50 mM sodium acetate (pH not stated), 25 °C, 30 min; 1.5% TAE agarose gel
Conditions: protein: recombinant; label: 5' ATTO488 on strand 1; blunt

wild-type T7 RNA polymerase (Enterobacteria phage T7, sequence (P00573 whole entry): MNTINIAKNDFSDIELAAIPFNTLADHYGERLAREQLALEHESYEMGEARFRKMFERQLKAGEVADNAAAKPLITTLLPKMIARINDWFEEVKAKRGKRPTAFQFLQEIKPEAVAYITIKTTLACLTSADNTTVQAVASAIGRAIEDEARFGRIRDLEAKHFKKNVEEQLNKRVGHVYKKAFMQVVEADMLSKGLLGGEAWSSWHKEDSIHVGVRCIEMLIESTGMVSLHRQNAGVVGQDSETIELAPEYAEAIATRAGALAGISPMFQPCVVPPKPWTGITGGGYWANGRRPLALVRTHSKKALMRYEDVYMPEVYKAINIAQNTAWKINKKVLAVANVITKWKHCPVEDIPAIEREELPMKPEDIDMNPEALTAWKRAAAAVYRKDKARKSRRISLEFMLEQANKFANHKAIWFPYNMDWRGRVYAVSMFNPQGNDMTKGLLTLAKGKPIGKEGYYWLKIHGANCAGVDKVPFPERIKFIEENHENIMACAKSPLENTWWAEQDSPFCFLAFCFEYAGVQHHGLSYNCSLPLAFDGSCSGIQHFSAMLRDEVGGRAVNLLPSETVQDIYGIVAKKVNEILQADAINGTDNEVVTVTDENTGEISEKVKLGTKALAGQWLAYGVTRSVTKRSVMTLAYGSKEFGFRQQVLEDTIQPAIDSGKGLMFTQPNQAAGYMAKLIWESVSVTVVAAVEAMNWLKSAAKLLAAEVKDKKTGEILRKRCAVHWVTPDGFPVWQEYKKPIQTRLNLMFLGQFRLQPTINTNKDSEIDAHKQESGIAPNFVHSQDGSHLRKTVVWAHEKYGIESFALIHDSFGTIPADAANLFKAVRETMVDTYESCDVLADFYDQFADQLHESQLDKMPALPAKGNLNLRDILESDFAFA

B1: T7 promoter dsDNA (dsDNA)
DNA 1: GCCAGTAATACGACTCACTATAGGG
DNA 2: CCCTATAGTGAGTCGTATTACTGGC
B1: binds.
